{
  "source": "patent US20240002499A1",
  "about": "“ANTI-CLIC1 PROTEIN ANTIBODIES AND THE DIAGNOSTIC AND THERAPEUTIC USES THEREOF” (Universita' Degli Studi di Milano, priority 2020, published 2024)",
  "key": {"human glioblastoma cells": {"tested_on": "human glioblastoma cells", "assay": "Growth curves of human glioblastoma cells in primary culture", "format": "cell-based", "source_text": "The primary glioblastoma cell lines, already tested for stem cell properties and carcinogenicity, were kindly supplied by Professor T. Florio's laboratory at Genoa University (Genoa, Italy). The cells were obtained from a surgical biopsy performed in the Neurosurgery Department of IRCCS-AOU San Martino IST (Genoa, Italy), from patients who had not received any treatment before the operation. The samples were histologically classified as GB grade IV (according to the WHO classification), and were used after obtaining the patients' informed consent and the approval of the Institutional Ethics Committee (IEC). The cells were cultured in stem cell-permissive medium consisting of Dulbecco's Modified Eagle's Medium (DMEM) and F12-GlutaMAX at the ratio of 1:1, supplemented with 1×B27 (Thermo Fisher Scientific), […] of fibroblast growth factor (FGF, Miltenyi Biotec), […] of human epidermal growth factor (EGF, Miltenyi Biotec) and 1% penicillin/streptomycin (Pen/Strep, […]) (Thermo Fisher Scientific).\n(§1) The cells were seeded in 24-well plates (20,000 cells/well) and counted after 24, 48, 72 and 96 hours to construct the growth curve. The cells were collected and centrifuged, and the resuspended pellet was diluted 1:1 with Trypan Blue. An automated counter (Countess II, Thermo Fisher Scientific) was used to count the cells. All data were normalized to their controls."}, "microglial cells": {"tested_on": "microglial cells", "assay": "Growth curves of microglial cells stimulated with β-amyloid", "format": "cell-based, mice", "conditions": "1 μM β-amyloid, 4-day observation period", "protocol": "The microglial cells used (BV-2) originated from an immortalised cell line deriving from C57BL/6 mice and commonly marketed. The culture medium used was RPMI (Thermo Fisher Scientific) with the addition of 10% FBS (Euroclone) and 1% Pen/Strep ([…], Thermo Fisher Scientific).\nas §1"}, "CLIC1": {"target": "T1, CLIC1 (Homo sapiens, UniProt O00299)", "T1 construct": "expressed in transfected cells; host or cells: HEK cells", "assay": "Whole-cell patch clamp on HEK cells transfected with CLIC1 plasmid", "format": "cell-based", "conditions": "HEK cells overexpressing CLIC1; voltage steps from −60 to +80 mV; IAA94 50 μM", "protocol": "FIG. 17. Current/voltage relationship of CLIC1 membrane current in whole-cell patch clamp experiments. HEK cells were transfected with CLIC1 plasmid to overexpress the CLIC1 protein. After recording control current (filled cycles; n=5) cells were perfused alternatively with the polyclonal antibody (open triangles; n=7), tmCLIComab (inverse open triangles; n=10) and with 50 μM IAA94 (filled squared; n=11). The whole cells current is expressed as a current density.\nThe reference sequence of the CLIC1 protein used in the experiments described in the present patent application is filed at UniProt under number UniProtKB—000299 (CLIC1 human), and described in the article Harrop S. J. et al., “Crystal structure of a soluble form of the intracellular chloride ion channel CLIC1 (NCC27) at 1.4-Å Resolution”; The Journal of Biological Chemistry, Vol. 276 No. 48, November 30, pp. 44993-45000 (2001).\nThe potential was set on the basis of the resting potential of each cell (between 0 and −80 mV). The CLIC1-mediated chlorine currents were isolated from other ion currents by mathematical subtraction of the residual current following perfusion of 100 μM IAA94 dissolved in the external solution."}, "[1]": {"target": "T2, peptide […] (amino acids 3-24 of the CLIC1 protein) (Homo sapiens, UniProt O00299)", "T2 construct": "conducted against the peptide […]; (amino acids 3-24 of the CLIC1 protein); host or cells: synthetic peptide microarray (PEPperMAP)", "assay": "PEPperMAP epitope mapping on CLIC1 peptide microarrays", "format": "binding", "protocol": "PEPperMAP epitope Mapping® of the tmCLIC1omab antibody was conducted against the peptide […] (amino acids 3-24 of the CLIC1 protein) translated to linear peptides consisting of 5, 10 and 15 amino acids with peptide-peptide overlaps of 4, 9 and 14 amino acids for high-resolution epitope data. The resulting CLIC1 peptide microarrays were incubated with the antibody samples at concentrations of 1 μg/ml, 10 μg/ml, 100 μg/ml and 250 μg/ml in incubation buffer, followed by staining with secondary and control antibodies and reading with a LI-COR Odyssey Imaging System. The intensity of the points and peptide annotation were quantified with the PepSlide® Analyzer."}, "COLO201": {"tested_on": "COLO201", "assay": "Trans well migration and invasion assay", "format": "cell-based", "conditions": "COLO201 WT, 72 h", "protocol": "The overexpression of tmCLIC1 in the most aggressive cell lines of colorectal cancer and its pivotal role in regulation of cell cycle progression and proliferation, opens a question on the function of tmCLIC1 activity on migration and invasion potential of CRCs, that makes colorectal cancer still uncurable. We performed a Trans well assay to understand whether CLIC1 impairment could affect the migration and invasion potential of COLO201. Cells were plated after 60 hours of serum deprivation on a porous membrane, permeable only to growth factor, in contact to complete medium. The resulting chemo-attractant gradient leads the migrative cells to cross the membranes that are then stained with DAPI to visualize the nuclei. […] For invasion assays, we coated with Matrigel the porous membrane to mimic the extracellular matrix that cells must disrupt to invade tissues and mucosa.\nCells were plated after 60 hours of serum deprivation on a […] porous membrane, permeable only to growth factor, in contact to complete medium. Membranes were cut, stained with DAPI dye, and included with mowiol. Cover glasses were examined under Zeiss Examiner A1 fluorescence microscope with a Zeiss 40×/0.75 NA water immersion lens."}, "tmCLIC1 ion channel": {"target": "T3, tmCLIC1 ion channel (Homo sapiens, UniProt O00299)", "T3 construct": "endogenous in cells; host or cells: primary human glioblastoma, colorectal cancer and prostate cancer cells", "assay": "Patch clamp of CLIC1-mediated chloride current in primary human tumour cultures", "format": "cell-based", "conditions": "perforated patch clamp; glioblastoma, colorectal and prostate primary human tumour cultures; perfusion of antibody", "protocol": "The microelectrodes were obtained from borosilicate capillaries with a diameter of 1.5 mm. Micropipettes were produced with a P-97 Brown-Flaming puller (Sutter Instruments, Novato, CA), with which the capillaries were forged to a tip diameter of 1-1.5 μm and electrical resistance of 5-8 MΩ.\nThe perforated patch clamp configuration was used for the whole-cell experiments, employing the antibiotic gramicidin (final concentration in pipette 5 μg/ml) which forms pores in the membrane that are only permeable to monovalent cations; in this way, the cytoplasmic concentration of the chloride ion remains unchanged throughout the experiment. The ion currents were digitised at 5 kHz and filtered at 1 kHz. Clampex 9.2 was used as the data acquisition and analysis programme.\nIn the time-course experiments, the potential was set on the basis of the resting potential of each cell, and a voltage step of +60 mV was applied every 5 seconds. The current measured is that observed at the end of the voltage step lasting 800 ms. When the amplitude of the current reaches a constant value, the antibody and IAA94 are added in sequence.\nFor the current-voltage graph, the voltage step protocol used to isolate the currents consisted of voltage variations ranging from −60 mV to +60 mV, with progressive increments of 20 mV lasting 800 ms. […]"}},
  "note": "Entries after “also recorded” stand apart in the source; their conditions may differ.",
  "data": [
    {"molecule": "tmCLIC1omab: IgG1 class antibody containing the heavy chain variable region SEQ ID NO:13 and the light chain variable region SEQ ID NO:14 (antibody, listed as Mus musculus, V domains shown) VH: EVMLVESGGGLVKPGGSLKLSCAASGFAFSNYAMSWIRQIPEKRLEWVATISTGGSSTFYPDSVKGRFTISRDNAKNTLYLQMSSLRSEDTAMYYCTRHAYEAWFAYWGQGTLVTVSA VL: QIVLTQSPALMSASPGEKVTMTCSASSSVSYMYWYQQRPRSSPKPWIYLTSTLASGVPTRFSGSGSGTSYSLTISSMEAEDAATYYCQQWNSHPLTFGSGTKLEIK", "values": [
      {"measurement": "growth rate compared with Clic1−/− knockout cells", "setting": "human glioblastoma cells; glioblastoma cells, FIG. 9", "value": "the same growth rate"},
      {"measurement": "cell growth (growth curve)", "setting": "human glioblastoma cells; primary culture, 4-day period", "value": "inhibited cell growth"},
      {"measurement": "cell proliferation in the presence of β-amyloid", "setting": "microglial cells", "value": "completely inhibited"},
      {"measurement": "inhibition of CLIC1 ionic whole-cell current", "setting": "CLIC1", "value": "matched only by tmCLIC1omab"},
      {"measurement": "binding to the QVELFV sequence", "setting": "[1]; linear peptide microarray", "value": "with lower affinity, binds the QVELFV sequence (SEQ ID NO:27) well"},
      {"measurement": "epitope sequence for which the antibody exhibits specificity", "setting": "[1]; linear peptides of 5, 10 and 15 amino acids, antibody 1-250 μg/ml", "value": "QVELF"},
      {"measurement": "migration (number of migrative nuclei) versus control", "setting": "COLO201", "value": "significant lower number of migrative nuclei"},
      {"measurement": "invasion (number of invasive nuclei) versus control", "setting": "COLO201; Matrigel-coated membrane", "value": "the same behavior seen for migration assay"},
      {"measurement": "CLIC1-mediated chloride current (current density/voltage)", "setting": "tmCLIC1 ion channel", "value": "almost totally eliminated; also recorded: depressed and almost eliminated the membrane current"}
    ]}
  ]
}
